Data taken from article PMC10978839.

Assays:
[1] = confocal colocalisation with calreticulin/GM130; membrane trafficking; conditions: glycan lost; control: SEMA7A-WT
[2] = CHX chase immunoblot, turnover rate; conditions: glycan lost; control: untreated (endogenous SEMA7A)
[3] = non-reducing vs reducing western blot; conditions: glycan lost; control: SEMA7A-WT
[4] = immunofluorescence intensity, HN6 and HN30; conditions: glycan lost; control: untreated and O-Glycosidase-treated cells

Protein	localisation_or_trafficking [1]	other results
SEMA7A: N258Q (protein) parent chain: MTPPPPGRAAPSAPRARVPGPPARLGLPLRLRLLLLLWAAAASAQGHLRSGPRIFAVWKGHVGQDRVDFGQTEPHTVLFHEPGSSSVWVGGRGKVYLFDFPEGKNASVRTVNIGSTKGSCLDKRDCENYITLLERRSEGLLACGTNARHPSCWNLVNGTVVPLGEMRGYAPFSPDENSLVLFEGDEVYSTIRKQEYNGKIPRFRRIRGESELYTSDTVMQNPQFIKATIVHQDQAYDDKIYYFFREDNPDKNPEAPLNVSRVAQLCRGDQGGESSLSVSKWNTFLKAMLVCSDAATNKNFNRLQDVFLLPDPSGQWRDTRVYGVFSNPWNYSAVCVYSLGDIDKVFRTSSLKGYHSSLPNPRPGKCLPDQQPIPTETFQVADRHPEVAQRVEPMGPLKTPLFHSKYHYQKVAVHRMQASHGETFHVLYLTTDRGTIHKVVEPGEQEHSFAFNIMEIQPFRRAAAIQTMSLDAERRKLYVSSQWEVSQVPLDLCEVYGGGCHGCLMSRDPYCGWDQGRCISIYSSERSVLQSINPAEPHKECPNPKPDKAPLQKVSLAPNSRYYLSCPMESRHATYSWRHKENVEQSCEPGHQSPNCILFIENLTAQQYGHYFCEAQEGSYFREAQHWQLLPEDGIMAEHLLGHACALAASLWLGVLPTLTLGLLVH	no change	–
SEMA7A: N330Q (protein) parent chain: MTPPPPGRAAPSAPRARVPGPPARLGLPLRLRLLLLLWAAAASAQGHLRSGPRIFAVWKGHVGQDRVDFGQTEPHTVLFHEPGSSSVWVGGRGKVYLFDFPEGKNASVRTVNIGSTKGSCLDKRDCENYITLLERRSEGLLACGTNARHPSCWNLVNGTVVPLGEMRGYAPFSPDENSLVLFEGDEVYSTIRKQEYNGKIPRFRRIRGESELYTSDTVMQNPQFIKATIVHQDQAYDDKIYYFFREDNPDKNPEAPLNVSRVAQLCRGDQGGESSLSVSKWNTFLKAMLVCSDAATNKNFNRLQDVFLLPDPSGQWRDTRVYGVFSNPWNYSAVCVYSLGDIDKVFRTSSLKGYHSSLPNPRPGKCLPDQQPIPTETFQVADRHPEVAQRVEPMGPLKTPLFHSKYHYQKVAVHRMQASHGETFHVLYLTTDRGTIHKVVEPGEQEHSFAFNIMEIQPFRRAAAIQTMSLDAERRKLYVSSQWEVSQVPLDLCEVYGGGCHGCLMSRDPYCGWDQGRCISIYSSERSVLQSINPAEPHKECPNPKPDKAPLQKVSLAPNSRYYLSCPMESRHATYSWRHKENVEQSCEPGHQSPNCILFIENLTAQQYGHYFCEAQEGSYFREAQHWQLLPEDGIMAEHLLGHACALAASLWLGVLPTLTLGLLVH	no change	–
SEMA7A: tunicamycin (protein) parent chain: MTPPPPGRAAPSAPRARVPGPPARLGLPLRLRLLLLLWAAAASAQGHLRSGPRIFAVWKGHVGQDRVDFGQTEPHTVLFHEPGSSSVWVGGRGKVYLFDFPEGKNASVRTVNIGSTKGSCLDKRDCENYITLLERRSEGLLACGTNARHPSCWNLVNGTVVPLGEMRGYAPFSPDENSLVLFEGDEVYSTIRKQEYNGKIPRFRRIRGESELYTSDTVMQNPQFIKATIVHQDQAYDDKIYYFFREDNPDKNPEAPLNVSRVAQLCRGDQGGESSLSVSKWNTFLKAMLVCSDAATNKNFNRLQDVFLLPDPSGQWRDTRVYGVFSNPWNYSAVCVYSLGDIDKVFRTSSLKGYHSSLPNPRPGKCLPDQQPIPTETFQVADRHPEVAQRVEPMGPLKTPLFHSKYHYQKVAVHRMQASHGETFHVLYLTTDRGTIHKVVEPGEQEHSFAFNIMEIQPFRRAAAIQTMSLDAERRKLYVSSQWEVSQVPLDLCEVYGGGCHGCLMSRDPYCGWDQGRCISIYSSERSVLQSINPAEPHKECPNPKPDKAPLQKVSLAPNSRYYLSCPMESRHATYSWRHKENVEQSCEPGHQSPNCILFIENLTAQQYGHYFCEAQEGSYFREAQHWQLLPEDGIMAEHLLGHACALAASLWLGVLPTLTLGLLVH	–	degradation_or_half_life [2]: increases
SEMA7A: N157Q (protein) parent chain: MTPPPPGRAAPSAPRARVPGPPARLGLPLRLRLLLLLWAAAASAQGHLRSGPRIFAVWKGHVGQDRVDFGQTEPHTVLFHEPGSSSVWVGGRGKVYLFDFPEGKNASVRTVNIGSTKGSCLDKRDCENYITLLERRSEGLLACGTNARHPSCWNLVNGTVVPLGEMRGYAPFSPDENSLVLFEGDEVYSTIRKQEYNGKIPRFRRIRGESELYTSDTVMQNPQFIKATIVHQDQAYDDKIYYFFREDNPDKNPEAPLNVSRVAQLCRGDQGGESSLSVSKWNTFLKAMLVCSDAATNKNFNRLQDVFLLPDPSGQWRDTRVYGVFSNPWNYSAVCVYSLGDIDKVFRTSSLKGYHSSLPNPRPGKCLPDQQPIPTETFQVADRHPEVAQRVEPMGPLKTPLFHSKYHYQKVAVHRMQASHGETFHVLYLTTDRGTIHKVVEPGEQEHSFAFNIMEIQPFRRAAAIQTMSLDAERRKLYVSSQWEVSQVPLDLCEVYGGGCHGCLMSRDPYCGWDQGRCISIYSSERSVLQSINPAEPHKECPNPKPDKAPLQKVSLAPNSRYYLSCPMESRHATYSWRHKENVEQSCEPGHQSPNCILFIENLTAQQYGHYFCEAQEGSYFREAQHWQLLPEDGIMAEHLLGHACALAASLWLGVLPTLTLGLLVH	no change	–
SEMA7A: N602Q (protein) parent chain: MTPPPPGRAAPSAPRARVPGPPARLGLPLRLRLLLLLWAAAASAQGHLRSGPRIFAVWKGHVGQDRVDFGQTEPHTVLFHEPGSSSVWVGGRGKVYLFDFPEGKNASVRTVNIGSTKGSCLDKRDCENYITLLERRSEGLLACGTNARHPSCWNLVNGTVVPLGEMRGYAPFSPDENSLVLFEGDEVYSTIRKQEYNGKIPRFRRIRGESELYTSDTVMQNPQFIKATIVHQDQAYDDKIYYFFREDNPDKNPEAPLNVSRVAQLCRGDQGGESSLSVSKWNTFLKAMLVCSDAATNKNFNRLQDVFLLPDPSGQWRDTRVYGVFSNPWNYSAVCVYSLGDIDKVFRTSSLKGYHSSLPNPRPGKCLPDQQPIPTETFQVADRHPEVAQRVEPMGPLKTPLFHSKYHYQKVAVHRMQASHGETFHVLYLTTDRGTIHKVVEPGEQEHSFAFNIMEIQPFRRAAAIQTMSLDAERRKLYVSSQWEVSQVPLDLCEVYGGGCHGCLMSRDPYCGWDQGRCISIYSSERSVLQSINPAEPHKECPNPKPDKAPLQKVSLAPNSRYYLSCPMESRHATYSWRHKENVEQSCEPGHQSPNCILFIENLTAQQYGHYFCEAQEGSYFREAQHWQLLPEDGIMAEHLLGHACALAASLWLGVLPTLTLGLLVH	no change	–
SEMA7A: N105Q (protein) parent chain: MTPPPPGRAAPSAPRARVPGPPARLGLPLRLRLLLLLWAAAASAQGHLRSGPRIFAVWKGHVGQDRVDFGQTEPHTVLFHEPGSSSVWVGGRGKVYLFDFPEGKNASVRTVNIGSTKGSCLDKRDCENYITLLERRSEGLLACGTNARHPSCWNLVNGTVVPLGEMRGYAPFSPDENSLVLFEGDEVYSTIRKQEYNGKIPRFRRIRGESELYTSDTVMQNPQFIKATIVHQDQAYDDKIYYFFREDNPDKNPEAPLNVSRVAQLCRGDQGGESSLSVSKWNTFLKAMLVCSDAATNKNFNRLQDVFLLPDPSGQWRDTRVYGVFSNPWNYSAVCVYSLGDIDKVFRTSSLKGYHSSLPNPRPGKCLPDQQPIPTETFQVADRHPEVAQRVEPMGPLKTPLFHSKYHYQKVAVHRMQASHGETFHVLYLTTDRGTIHKVVEPGEQEHSFAFNIMEIQPFRRAAAIQTMSLDAERRKLYVSSQWEVSQVPLDLCEVYGGGCHGCLMSRDPYCGWDQGRCISIYSSERSVLQSINPAEPHKECPNPKPDKAPLQKVSLAPNSRYYLSCPMESRHATYSWRHKENVEQSCEPGHQSPNCILFIENLTAQQYGHYFCEAQEGSYFREAQHWQLLPEDGIMAEHLLGHACALAASLWLGVLPTLTLGLLVH	no change	–
SEMA7A: 3NQ (protein) parent chain: MTPPPPGRAAPSAPRARVPGPPARLGLPLRLRLLLLLWAAAASAQGHLRSGPRIFAVWKGHVGQDRVDFGQTEPHTVLFHEPGSSSVWVGGRGKVYLFDFPEGKNASVRTVNIGSTKGSCLDKRDCENYITLLERRSEGLLACGTNARHPSCWNLVNGTVVPLGEMRGYAPFSPDENSLVLFEGDEVYSTIRKQEYNGKIPRFRRIRGESELYTSDTVMQNPQFIKATIVHQDQAYDDKIYYFFREDNPDKNPEAPLNVSRVAQLCRGDQGGESSLSVSKWNTFLKAMLVCSDAATNKNFNRLQDVFLLPDPSGQWRDTRVYGVFSNPWNYSAVCVYSLGDIDKVFRTSSLKGYHSSLPNPRPGKCLPDQQPIPTETFQVADRHPEVAQRVEPMGPLKTPLFHSKYHYQKVAVHRMQASHGETFHVLYLTTDRGTIHKVVEPGEQEHSFAFNIMEIQPFRRAAAIQTMSLDAERRKLYVSSQWEVSQVPLDLCEVYGGGCHGCLMSRDPYCGWDQGRCISIYSSERSVLQSINPAEPHKECPNPKPDKAPLQKVSLAPNSRYYLSCPMESRHATYSWRHKENVEQSCEPGHQSPNCILFIENLTAQQYGHYFCEAQEGSYFREAQHWQLLPEDGIMAEHLLGHACALAASLWLGVLPTLTLGLLVH	–	oligomerisation [3]: no change
SEMA7A: PNGase F (protein) parent chain: MTPPPPGRAAPSAPRARVPGPPARLGLPLRLRLLLLLWAAAASAQGHLRSGPRIFAVWKGHVGQDRVDFGQTEPHTVLFHEPGSSSVWVGGRGKVYLFDFPEGKNASVRTVNIGSTKGSCLDKRDCENYITLLERRSEGLLACGTNARHPSCWNLVNGTVVPLGEMRGYAPFSPDENSLVLFEGDEVYSTIRKQEYNGKIPRFRRIRGESELYTSDTVMQNPQFIKATIVHQDQAYDDKIYYFFREDNPDKNPEAPLNVSRVAQLCRGDQGGESSLSVSKWNTFLKAMLVCSDAATNKNFNRLQDVFLLPDPSGQWRDTRVYGVFSNPWNYSAVCVYSLGDIDKVFRTSSLKGYHSSLPNPRPGKCLPDQQPIPTETFQVADRHPEVAQRVEPMGPLKTPLFHSKYHYQKVAVHRMQASHGETFHVLYLTTDRGTIHKVVEPGEQEHSFAFNIMEIQPFRRAAAIQTMSLDAERRKLYVSSQWEVSQVPLDLCEVYGGGCHGCLMSRDPYCGWDQGRCISIYSSERSVLQSINPAEPHKECPNPKPDKAPLQKVSLAPNSRYYLSCPMESRHATYSWRHKENVEQSCEPGHQSPNCILFIENLTAQQYGHYFCEAQEGSYFREAQHWQLLPEDGIMAEHLLGHACALAASLWLGVLPTLTLGLLVH	–	other: immunofluorescence detection by antibody [4]: increases
